Legend:
[1] = target: rice RAD51A1 (japonica cultivar Nipponbare), His6 tag removed (Oryza sativa (japonica cultivar Nipponbare)); assay: SEC; Superdex 200 GL 10/300; 70 µg protein incubated 30 min at room temperature without nucleotide (the printed oligomer sizes), with 1 mM ATP (apparent sizes drastically increased) or with 1 mM ADP (no such change); elution in 20 mM HEPES-NaOH pH 7.5, 400 mM NaCl, 0.1 mM EDTA, 2 mM 2-mercaptoethanol, 1 mM MgCl2; apparent molecular sizes
[2] = target: rice RAD51A2 (japonica cultivar Nipponbare), His6 tag removed (Oryza sativa (japonica cultivar Nipponbare)); assay: as above

| Substance | stoichiometry N [1] | stoichiometry N [2] |
| --- | --- | --- |
| rice RAD51A1 (japonica cultivar Nipponbare), His6 tag removed (natural protein) | 8 -mer |  |
| rice RAD51A2 (japonica cultivar Nipponbare), His6 tag removed (natural protein) |  | 5 -mer |

Reference: article PMC3790826
